Earlier results in patent publication US20240158457A1, “INTERLEUKIN-18 RECEPTOR BINDING POLYPEPTIDES AND USES THEREOF” (Medikine, Inc., priority 2022, published 2024).

Target: T1, IL-18 (Homo sapiens, UniProt Q14116)
T1 sequence (Q14116 37-193): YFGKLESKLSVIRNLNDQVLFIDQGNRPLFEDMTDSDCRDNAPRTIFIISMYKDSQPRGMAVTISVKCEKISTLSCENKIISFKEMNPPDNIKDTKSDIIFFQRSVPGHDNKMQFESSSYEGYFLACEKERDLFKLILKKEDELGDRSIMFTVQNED
Conditions: background; read-out: affinity for IL-18

Kd: ~0.4 nM
B1: IL-18BP: IL-18 binding protein, decoy receptor; IL-18BP Fc fusion (Acro #ILP-H5253) (protein)
chain: TPVSQTTTAATASVRSTKDPCPSQPPVFPAAKQCPALEVTWPEVEVPLNGTLSLSCVACSRFPNFSILYWLGNGSFIEHLPGRLWEGSTSRERGSTGTQLCKALVLEQLTPALHSTNFSCVLVDPEQVVQRHVVLAQLWAGLRATLPPTQEALPSSHSSPQQQG
modifications: left off: a dimerising Fc or GST
